Data published in patent US20130005646A1 (Novo Nordisk, published 2013).
Starred links: 1 amine or outer side, 2 acyl side, 3 side chain; linkers in the order of their positions; H or OH if unused. Positions of bridges follow the written chain, without caps; N, C: chain ends. *: point of attachment. C20 diacid = O=C(O)CCCCCCCCCCCCCCCCCCC(=O)*; C18 diacid = O=C(O)CCCCCCCCCCCCCCCCC(=O)*; γGlu = O=C(O)[C@H](CCC(=O)[*:2])N[*:1]

Experiments:
[1] = target: T1, human amylin 3(a) receptor (human calcitonin receptor + RAMP-3) (human, UniProt P30988 25-474; O60896 24-148); assay: cell-based or functional assay
T1 sequence (looked up) 1: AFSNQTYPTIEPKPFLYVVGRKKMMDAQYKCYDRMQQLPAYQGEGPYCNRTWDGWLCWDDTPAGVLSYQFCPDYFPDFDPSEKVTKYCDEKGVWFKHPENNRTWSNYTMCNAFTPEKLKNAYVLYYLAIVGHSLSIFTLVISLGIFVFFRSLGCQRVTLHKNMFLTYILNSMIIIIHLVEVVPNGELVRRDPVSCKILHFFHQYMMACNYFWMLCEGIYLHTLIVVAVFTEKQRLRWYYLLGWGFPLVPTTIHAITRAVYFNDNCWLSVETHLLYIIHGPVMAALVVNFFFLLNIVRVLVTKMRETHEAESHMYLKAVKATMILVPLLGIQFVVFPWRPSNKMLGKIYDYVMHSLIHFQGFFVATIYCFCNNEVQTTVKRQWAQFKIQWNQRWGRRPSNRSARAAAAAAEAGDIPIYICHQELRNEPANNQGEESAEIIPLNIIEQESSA
T1 sequence (looked up) 2: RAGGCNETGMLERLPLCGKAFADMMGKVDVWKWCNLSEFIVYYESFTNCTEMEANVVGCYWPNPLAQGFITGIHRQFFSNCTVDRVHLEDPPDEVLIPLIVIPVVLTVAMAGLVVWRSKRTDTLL

[2] = target: T2, human calcitonin (a) receptor (human, UniProt P30988 25-474); assay: cell-based or functional assay
T2 sequence (looked up): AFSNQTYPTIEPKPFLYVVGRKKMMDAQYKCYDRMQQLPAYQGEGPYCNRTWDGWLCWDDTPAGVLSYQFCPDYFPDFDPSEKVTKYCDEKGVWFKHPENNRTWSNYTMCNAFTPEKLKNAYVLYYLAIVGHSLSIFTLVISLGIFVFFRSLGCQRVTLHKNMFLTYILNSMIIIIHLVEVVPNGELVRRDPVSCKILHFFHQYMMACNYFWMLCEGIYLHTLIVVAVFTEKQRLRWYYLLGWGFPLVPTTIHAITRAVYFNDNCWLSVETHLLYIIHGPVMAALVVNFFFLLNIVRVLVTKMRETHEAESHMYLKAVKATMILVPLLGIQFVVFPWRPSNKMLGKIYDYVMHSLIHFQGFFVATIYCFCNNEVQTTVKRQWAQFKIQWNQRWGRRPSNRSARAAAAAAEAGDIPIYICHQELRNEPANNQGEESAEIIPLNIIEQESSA

Binder	Amylin receptor human EC50 [1]	CTa receptor human EC50 [2]
{C20 diacid-γGlu}-KCNTATCATERLAEFLHHSSNNFGPILPPTNVGSNTY-NH2 (disulfide 2-7; SMILES CC[C@H](C)[C@H](NC(=O)[C@@H]1CCCN1C(=O)CNC(=O)[C@H](Cc1ccccc1)NC(=O)[C@H](CC(N)=O)NC(=O)[C@H](CC(N)=O)NC(=O)[C@H](CO)NC(=O)[C@H](CO)NC(=O)[C@H](Cc1c[nH]cn1)NC(=O)[C@H](Cc1c[nH]cn1)NC(=O)[C@H](CC(C)C)NC(=O)[C@H](Cc1ccccc1)NC(=O)[C@H](CCC(=O)O)NC(=O)[C@H](C)NC(=O)[C@H](CC(C)C)NC(=O)[C@H](CCCNC(=N)N)NC(=O)[C@H](CCC(=O)O)NC(=O)[C@@H](NC(=O)[C@H](C)NC(=O)[C@@H]1CSSC[C@H](NC(=O)[C@H](CCCCN)NC(=O)CC[C@H](NC(=O)CCCCCCCCCCCCCCCCCCC(=O)O)C(=O)O)C(=O)N[C@@H](CC(N)=O)C(=O)N[C@@H]([C@@H](C)O)C(=O)N[C@@H](C)C(=O)N[C@@H]([C@@H](C)O)C(=O)N1)[C@@H](C)O)C(=O)N[C@@H](CC(C)C)C(=O)N1CCC[C@H]1C(=O)N1CCC[C@H]1C(=O)N[C@H](C(=O)N[C@@H](CC(N)=O)C(=O)N[C@H](C(=O)NCC(=O)N[C@@H](CO)C(=O)N[C@@H](CC(N)=O)C(=O)N[C@H](C(=O)N[C@@H](Cc1ccc(O)cc1)C(N)=O)[C@@H](C)O)C(C)C)[C@@H](C)O) [N-alpha-[(S)-4-Carboxy-4-(19-carboxynonadecanoylamino)butyryl]-[Glu10,Glu14,His17]-pramlintide]	0.13 nM	0.2 nM
{C18 diacid-γGlu}-EKCNTATCATQRLAEFLHHSSNNFGPILPPTNVGSHTY-NH2 (disulfide 3-8; SMILES CC[C@H](C)[C@H](NC(=O)[C@@H]1CCCN1C(=O)CNC(=O)[C@H](Cc1ccccc1)NC(=O)[C@H](CC(N)=O)NC(=O)[C@H](CC(N)=O)NC(=O)[C@H](CO)NC(=O)[C@H](CO)NC(=O)[C@H](Cc1c[nH]cn1)NC(=O)[C@H](Cc1c[nH]cn1)NC(=O)[C@H](CC(C)C)NC(=O)[C@H](Cc1ccccc1)NC(=O)[C@H](CCC(=O)O)NC(=O)[C@H](C)NC(=O)[C@H](CC(C)C)NC(=O)[C@H](CCCNC(=N)N)NC(=O)[C@H](CCC(N)=O)NC(=O)[C@@H](NC(=O)[C@H](C)NC(=O)[C@@H]1CSSC[C@H](NC(=O)[C@H](CCCCN)NC(=O)[C@H](CCC(=O)O)NC(=O)CC[C@H](NC(=O)CCCCCCCCCCCCCCCCC(=O)O)C(=O)O)C(=O)N[C@@H](CC(N)=O)C(=O)N[C@@H]([C@@H](C)O)C(=O)N[C@@H](C)C(=O)N[C@@H]([C@@H](C)O)C(=O)N1)[C@@H](C)O)C(=O)N[C@@H](CC(C)C)C(=O)N1CCC[C@H]1C(=O)N1CCC[C@H]1C(=O)N[C@H](C(=O)N[C@@H](CC(N)=O)C(=O)N[C@H](C(=O)NCC(=O)N[C@@H](CO)C(=O)N[C@@H](Cc1c[nH]cn1)C(=O)N[C@H](C(=O)N[C@@H](Cc1ccc(O)cc1)C(N)=O)[C@@H](C)O)C(C)C)[C@@H](C)O) [N-alpha-[(S)-4-Carboxy-4-(17-carboxyheptadecanoylamino)butyryl]-Glu-[Glu14,His17,His35]-pramlintide]	0.102 nM	0.169 nM
{C20 diacid-γGlu}-KCNTATCATQRLAEFLRHSSNNFGPILPPTNVGSNTY-NH2 (disulfide 2-7; SMILES CC[C@H](C)[C@H](NC(=O)[C@@H]1CCCN1C(=O)CNC(=O)[C@H](Cc1ccccc1)NC(=O)[C@H](CC(N)=O)NC(=O)[C@H](CC(N)=O)NC(=O)[C@H](CO)NC(=O)[C@H](CO)NC(=O)[C@H](Cc1c[nH]cn1)NC(=O)[C@H](CCCNC(=N)N)NC(=O)[C@H](CC(C)C)NC(=O)[C@H](Cc1ccccc1)NC(=O)[C@H](CCC(=O)O)NC(=O)[C@H](C)NC(=O)[C@H](CC(C)C)NC(=O)[C@H](CCCNC(=N)N)NC(=O)[C@H](CCC(N)=O)NC(=O)[C@@H](NC(=O)[C@H](C)NC(=O)[C@@H]1CSSC[C@H](NC(=O)[C@H](CCCCN)NC(=O)CC[C@H](NC(=O)CCCCCCCCCCCCCCCCCCC(=O)O)C(=O)O)C(=O)N[C@@H](CC(N)=O)C(=O)N[C@@H]([C@@H](C)O)C(=O)N[C@@H](C)C(=O)N[C@@H]([C@@H](C)O)C(=O)N1)[C@@H](C)O)C(=O)N[C@@H](CC(C)C)C(=O)N1CCC[C@H]1C(=O)N1CCC[C@H]1C(=O)N[C@H](C(=O)N[C@@H](CC(N)=O)C(=O)N[C@H](C(=O)NCC(=O)N[C@@H](CO)C(=O)N[C@@H](CC(N)=O)C(=O)N[C@H](C(=O)N[C@@H](Cc1ccc(O)cc1)C(N)=O)[C@@H](C)O)C(C)C)[C@@H](C)O) [N-alpha-[(S)-4-Carboxy-4-(19-carboxynonadecanoylamino)butyryl]-[Glu14,Arg17]-pramlintide]	0.101 nM	0.459 nM
{C18 diacid-γGlu}-KCNTATCATQRLAEFLRHSSNNFGPILPPTNVGSNTY-NH2 (disulfide 2-7; SMILES CC[C@H](C)[C@H](NC(=O)[C@@H]1CCCN1C(=O)CNC(=O)[C@H](Cc1ccccc1)NC(=O)[C@H](CC(N)=O)NC(=O)[C@H](CC(N)=O)NC(=O)[C@H](CO)NC(=O)[C@H](CO)NC(=O)[C@H](Cc1c[nH]cn1)NC(=O)[C@H](CCCNC(=N)N)NC(=O)[C@H](CC(C)C)NC(=O)[C@H](Cc1ccccc1)NC(=O)[C@H](CCC(=O)O)NC(=O)[C@H](C)NC(=O)[C@H](CC(C)C)NC(=O)[C@H](CCCNC(=N)N)NC(=O)[C@H](CCC(N)=O)NC(=O)[C@@H](NC(=O)[C@H](C)NC(=O)[C@@H]1CSSC[C@H](NC(=O)[C@H](CCCCN)NC(=O)CC[C@H](NC(=O)CCCCCCCCCCCCCCCCC(=O)O)C(=O)O)C(=O)N[C@@H](CC(N)=O)C(=O)N[C@@H]([C@@H](C)O)C(=O)N[C@@H](C)C(=O)N[C@@H]([C@@H](C)O)C(=O)N1)[C@@H](C)O)C(=O)N[C@@H](CC(C)C)C(=O)N1CCC[C@H]1C(=O)N1CCC[C@H]1C(=O)N[C@H](C(=O)N[C@@H](CC(N)=O)C(=O)N[C@H](C(=O)NCC(=O)N[C@@H](CO)C(=O)N[C@@H](CC(N)=O)C(=O)N[C@H](C(=O)N[C@@H](Cc1ccc(O)cc1)C(N)=O)[C@@H](C)O)C(C)C)[C@@H](C)O) [N-alpha-[(S)-4-Carboxy-4-(17-carboxyheptadecanoylamino)butyryl]-[Glu14,Arg17]-pramlintide]	0.061 nM	0.6 nM
{C20 diacid-γGlu}-KCNTATCATQRLAEFLHHSSNNFGAPLSSTNVGSHTY-NH2 (disulfide 2-7; SMILES CC(C)C[C@H](NC(=O)[C@H](CCCNC(=N)N)NC(=O)[C@H](CCC(N)=O)NC(=O)[C@@H](NC(=O)[C@H](C)NC(=O)[C@@H]1CSSC[C@H](NC(=O)[C@H](CCCCN)NC(=O)CC[C@H](NC(=O)CCCCCCCCCCCCCCCCCCC(=O)O)C(=O)O)C(=O)N[C@@H](CC(N)=O)C(=O)N[C@@H]([C@@H](C)O)C(=O)N[C@@H](C)C(=O)N[C@@H]([C@@H](C)O)C(=O)N1)[C@@H](C)O)C(=O)N[C@@H](C)C(=O)N[C@@H](CCC(=O)O)C(=O)N[C@@H](Cc1ccccc1)C(=O)N[C@@H](CC(C)C)C(=O)N[C@@H](Cc1c[nH]cn1)C(=O)N[C@@H](Cc1c[nH]cn1)C(=O)N[C@@H](CO)C(=O)N[C@@H](CO)C(=O)N[C@@H](CC(N)=O)C(=O)N[C@@H](CC(N)=O)C(=O)N[C@@H](Cc1ccccc1)C(=O)NCC(=O)N[C@@H](C)C(=O)N1CCC[C@H]1C(=O)N[C@@H](CC(C)C)C(=O)N[C@@H](CO)C(=O)N[C@@H](CO)C(=O)N[C@H](C(=O)N[C@@H](CC(N)=O)C(=O)N[C@H](C(=O)NCC(=O)N[C@@H](CO)C(=O)N[C@@H](Cc1c[nH]cn1)C(=O)N[C@H](C(=O)N[C@@H](Cc1ccc(O)cc1)C(N)=O)[C@@H](C)O)C(C)C)[C@@H](C)O)	0.153 nM	0.0945 nM
{C20 diacid-γGlu}-HHHCNTATCATQRLAEFLHHSSSNFGPILPPTNVGSETY-NH2 (disulfide 4-9; SMILES CC[C@H](C)[C@H](NC(=O)[C@@H]1CCCN1C(=O)CNC(=O)[C@H](Cc1ccccc1)NC(=O)[C@H](CC(N)=O)NC(=O)[C@H](CO)NC(=O)[C@H](CO)NC(=O)[C@H](CO)NC(=O)[C@H](Cc1c[nH]cn1)NC(=O)[C@H](Cc1c[nH]cn1)NC(=O)[C@H](CC(C)C)NC(=O)[C@H](Cc1ccccc1)NC(=O)[C@H](CCC(=O)O)NC(=O)[C@H](C)NC(=O)[C@H](CC(C)C)NC(=O)[C@H](CCCNC(=N)N)NC(=O)[C@H](CCC(N)=O)NC(=O)[C@@H](NC(=O)[C@H](C)NC(=O)[C@@H]1CSSC[C@H](NC(=O)[C@H](Cc2c[nH]cn2)NC(=O)[C@H](Cc2c[nH]cn2)NC(=O)[C@H](Cc2c[nH]cn2)NC(=O)CC[C@H](NC(=O)CCCCCCCCCCCCCCCCCCC(=O)O)C(=O)O)C(=O)N[C@@H](CC(N)=O)C(=O)N[C@@H]([C@@H](C)O)C(=O)N[C@@H](C)C(=O)N[C@@H]([C@@H](C)O)C(=O)N1)[C@@H](C)O)C(=O)N[C@@H](CC(C)C)C(=O)N1CCC[C@H]1C(=O)N1CCC[C@H]1C(=O)N[C@H](C(=O)N[C@@H](CC(N)=O)C(=O)N[C@H](C(=O)NCC(=O)N[C@@H](CO)C(=O)N[C@@H](CCC(=O)O)C(=O)N[C@H](C(=O)N[C@@H](Cc1ccc(O)cc1)C(N)=O)[C@@H](C)O)C(C)C)[C@@H](C)O)	0.558 nM	0.632 nM
